Details in all cases: both partners purified
Assay [1] concerns the target PCV2-Cap peptide aa 73–87 (Porcine circovirus 2, PCV2b strain SH). The assay can be described thus: ELISA; synthetic 15-mer peptides coated (1 µg/well); mAb-1E7 or mAb-3G4 added; detection with goat anti-mouse IgG. For orientation: ELISA stands for enzyme-linked immunosorbent assay.
Assay [2] addresses PCV2-Cap peptide aa 74–88 (Porcine circovirus 2, PCV2b strain SH). The assay is described as above.
The target of assay [3] is PCV2-Cap peptide aa 75–89 (Porcine circovirus 2, PCV2b strain SH). The description is as above.
The target of assay [4] is T1, recombinant PCV2 capsid protein (PCV2-Cap) (Porcine circovirus 2, strain of …, UniProt D6R1Z5).
T1 construct: also called monomeric PCV2-Cap
The assay can be described thus: Western blot.

Assay [5] concerns the target PCV2-Cap peptide aa 69–83 (Porcine circovirus 2, PCV2b strain SH). Kind of assay: ELISA; synthetic 15-mer peptides coated (1 µg/well); mAb-1E7 or mAb-3G4 added; detection with goat anti-mouse IgG.

B1: mAb-1E7 (antibody, V domains shown)
VH: QIQLVQSGPELKKPGETVKISCKASGYIFTNYGMNWVKQAPGKGFKWMGWINTYTGEPTYVDDFKGRFAFSLETSASTVYLQINNLKNEDTATYFCARSLENWGQGTTLTVSS
VL: DIVMTQAAFSNPVTLGTSASISCRSSKSLLHSNGITYLYWYLQKPGQSPQLLIYQMSNLASGVPDRFSSSGSGTDFTLRISRVEAEDVGVYYCAQNVELPTFGGGTKLEIK
Regarding B1, the binding result in assay [1], in assay [2] and in assay [3] was “binds” each time.

B2: mAb-3G4 (antibody, V domains shown)
VH: QVTLKESGPGILQPSQTLSLTCSFSGFSLSTSGMVVGWIRQPSGKGLEWLAHIWWDDVKRYNPALKSRLTISKDTSNSQVFLKIASVDTADTATYYCARSPFFAYWGQGTLVTISP
VL: DIQMTQSPSSLSASLGERVSLTCRASQDIGSNLNWLQKRSDGSIKRLIYATSSLDSGVPKRFSGSRSGSDYSLTISSLESEDFVDYYCLQYATSPYTFGGGTKLEIK
On to B2, for which the binding result in assay [4] and in assay [5] was “binds” each time.

The values are drawn from publication PMC10878242 (Journal of Virology, 2024).
